B1: 1.0% RSA: rat serum albumin (RSA, manufactured by Sigma Corp.), 1.0% final concentration, given alone (protein, UniProt P02770 25-608, looked up)
Albumin: EAHKSEIAHRFKDLGEQHFKGLVLIAFSQYLQKCPYEEHIKLVQEVTDFAKTCVADENAENCDKSIHTLFGDKLCAIPKLRDNYGELADCCAKQEPERNECFLQHKDDNPNLPPFQRPEAEAMCTSFQENPTSFLGHYLHEVARRHPYFYAPELLYYAEKYNEVLTQCCTESDKAACLTPKLDAVKEKALVAAVRQRMKCSSMQRFGERAFKAWAVARMSQRFPNAEFAEITKLATDVTKINKECCHGDLLECADDRAELAKYMCENQATISSKLQACCDKPVLQKSQCLAEIEHDNIPADLPSIAADFVEDKEVCKNYAEAKDVFLGTFLYEYSRRHPDYSVSLLLRLAKKYEATLEKCCAEGDPPACYGTVLAEFQPLVEEPKNLVKTNCELYEKLGEYGFQNAVLVRYTQKAPQVSTPTLVEAARNLGRVGTKCCTLPEAQRLPCVEDYLSAILNRLCVLHEKTPVSEKVTKCCSGSLVERRPCFSALTVDETYVPKEFKAETFTFHSDICTLPDKEKQIKKQTALAELVKHKPKATEDQLKTVMGDFAQFVDKCCKAADKDNCFATEGPNLVARSKEALA

Test system: hepatic encephalopathy model animal
Assay: hepatic encephalopathy model rat (partial hepatectomy + ammonium acetate): coma period and plasma ammonia (Test Examples 1-3)
Type: in vivo
Conditions: for coma period / concentration of ammonia in the blood: mean ± standard error
Experimental: A test drug was prepared by dissolving rat serum albumin (RSA, manufactured by Sigma Corp.) in an amino acid solution (components are disclosed in Table 3) to form a 0.1 w/v % or 1.0 w/v % solution, adding 1.0 N hydrochloric acid thereto to adjust the pH to 6.6 to 7.4 according to Preparation Example 3, filling the solution into a 500 ml infusion bottle and heating at 60° C. for 10 hours after sealing the bottle with a rubber plug. In comparison, physiological saline or the amino acid solution (pH 6.6 to 7.4), respectively, was used in the same way.
Rat partial hepatectomy was carried out by performing a laparotomy of a male SD rat (body weight of 200 to 230 g) under etherization, removing a lateral left lobe, a medial left lobe and a medial right lobe (67%) and closing the abdomen (Archs. Pathol., 1985; 12: 186-202).
A hepatic encephalopathy model animal was created by administering 2 M ammonium acetate solution at a rate of 3 ml/kg into the rat abdomen after 48 hours from the partial hepatectomy (“Kiso to Rinsho”, 1987; 21: 2509-2527).
The test drug was injected from the rat tail vein (10 ml/kg) 2 minutes before administering the ammonium solution. Subsequently, the coma period (minutes) was measured, blood was collected from the rat tail vein 30 minutes after administration of the ammonium solution, and the ammonia concentration in the blood plasma was determined by using an ammonia measuring reagent kit (brand name: Determiner NH3, manufactured by Kyowa Medics Corporation).
A test drug was prepared by dissolving human serum albumin (HSA, manufactured by Sigma Corp.) in the amino acid solution (components are disclosed in Table 3) in the same manner as in Preparation Example 3 to form a desired concentration of the solution (0.001, 0.01, 0.1 or 1.0 w/v %). 6 to 14 male SD rats (body weight 200 to 230 g) as test animals were used per one group, and creation of a hepatic encephalopathy model animal and a test method were carried out in the same manner as Test Example 1. The test drug was injected in an amount of 10 ml/kg from the tail vein.
A test drug was prepared by dissolving bovine serum albumin (BSA, manufactured by Sigma Corp.) in the amino acid solution (components bare disclosed in Table 3) in the same manner as in Preparation Example 3 to form a desired concentration of the solution (0.1 w/v % or 1.0 w/v %). Creation of a hepatic encephalopathy model animal and a test method were carried out in the same manner as Test Example 1.

| Molecule | coma period (Test Example 3 (BSA)) | concentration of ammonia in the blood (Test Example 3 (BSA)) | effect on the hepatic encephalopathy (Test Example 1, text on Table 4) | concentration of ammonia in the blood (Test Example 1, blood plasma 30 min after ammonium solution, test drug 10 ml/kg tail vein) | coma period (Test Example 1, male SD rat, test drug 10 ml/kg tail vein 2 min before ammonium acetate) |
| --- | --- | --- | --- | --- | --- |
| 1.0% BSA: bovine serum albumin (BSA, manufactured by Sigma Corp.), 1.0%, given alone | 23 ± 3 min | 119 ± 10 µmol/dL | – | – | – |
| B1 | – | – | no effect | 129 ± 13 µmol/dL | 31 ± 5 min |

Source: patent publication US6867193B1, “Amino acid-containing albumin preparation” (Nipro Corporation, priority 1999, dated 2005)
